# Measured values reported in PMC11885821, “Structures of complete HIV-1 TAR RNA portray a dynamic platform poised for protein binding and structural remodeling”.
# T1: Tat44-60 WT (HIV-1, UniProt P04608)
# T1 chain: GISYGRKKRRQRRRAHQ
# Experiments:
# [1] = target: PKR dsRBMs (Homo sapiens) (UniProt P19525); assay: FP
# [2] = target: PKR (unphosphorylated) (Homo sapiens) (UniProt P19525); assay: FP
# PKR (unphosphorylated) [3] = target: T2, PKR (unphosphorylated) (Homo sapiens, UniProt P19525 1-551); assay: FP; details: protein: recombinant, tags: His tag (HisTrap purified), hairpin
# PKR dsRBMs [4] = target: T3, PKR dsRBMs (Homo sapiens, UniProt P19525 9-167); assay: FP; details: protein: recombinant, tags: tag cleaved by TEV, hairpin
# Tat44-60 WT [5] = target: T1, Tat44-60 WT; assay: ITC; 1 mM Mg2+; details: label: 3' FAM in FP; none in ITC and SEC-MALS; hairpin, blunt 2 G-C end; bulges C5, A17, U23-C24-U25
# NC (nucleocapsid) = NC (nucleocapsid) (HIV-1, UniProt P04591 378-432); assay: 2AP fluorescence lifetime; details: protein: recombinant; tags: MBP tag cleaved by PreScission; label: 2AP; hairpin
# PKR dsRBMs [6] = target: T3, PKR dsRBMs; assay: 2AP fluorescence lifetime; details: protein: recombinant; tags: tag cleaved by TEV; label: 2AP; hairpin
# Tat44-60 WT [7] = target: T1, Tat44-60 WT; assay: 2AP fluorescence lifetime; details: label: 2AP; hairpin
# Tat44-60 WT [8] = target: T1, Tat44-60 WT; assay: crystal structure; peptide soaked into TAR-I crystals, 2.7 A; FP: 25 mM Tris-HCl pH 7.5, 50 mM NaCl, 50 mM KCl, 2 mM MgCl2, 21 C, 5 nM RNA; ITC: 25 mM Tris-HCl pH 7.5, 100 mM NaCl, 1 mM MgCl2, 25 C; details: hairpin, GAAA tetraloop
# PKR (unphosphorylated) [9] = target: T2, PKR (unphosphorylated); assay: FP; printed Kd 0.02 uM conflicts with log Ka and with text (3-fold weaker); details: protein: recombinant; tags: His tag (HisTrap purified); label: 3' FAM; hairpin
# [10] = label: 3' FAM in FP, none in ITC and SEC-MALS, blunt 2 G-C end, bulges C5, A17, U23-C24-U25
# T3 sequence (P19525 9-167): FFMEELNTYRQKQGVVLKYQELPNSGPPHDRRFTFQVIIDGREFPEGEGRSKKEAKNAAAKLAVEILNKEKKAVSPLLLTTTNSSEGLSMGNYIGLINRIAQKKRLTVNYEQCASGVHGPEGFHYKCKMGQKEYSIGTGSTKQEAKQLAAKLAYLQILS
# T2 sequence (P19525 whole entry): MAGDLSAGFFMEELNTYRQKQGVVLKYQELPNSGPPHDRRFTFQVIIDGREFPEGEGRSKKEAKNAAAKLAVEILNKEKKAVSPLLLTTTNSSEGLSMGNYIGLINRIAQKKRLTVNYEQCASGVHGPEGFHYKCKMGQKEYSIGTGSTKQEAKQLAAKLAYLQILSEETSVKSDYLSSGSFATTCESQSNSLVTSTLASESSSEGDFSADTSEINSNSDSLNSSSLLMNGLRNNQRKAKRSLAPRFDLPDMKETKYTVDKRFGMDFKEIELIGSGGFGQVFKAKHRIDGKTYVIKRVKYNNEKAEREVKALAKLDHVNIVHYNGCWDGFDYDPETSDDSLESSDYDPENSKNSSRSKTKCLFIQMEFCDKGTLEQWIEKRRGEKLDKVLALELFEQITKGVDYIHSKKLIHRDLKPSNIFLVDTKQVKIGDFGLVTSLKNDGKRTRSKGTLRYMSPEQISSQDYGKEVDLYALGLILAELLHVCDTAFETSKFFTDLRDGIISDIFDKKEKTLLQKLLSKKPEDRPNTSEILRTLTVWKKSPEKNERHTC
# Sequence of PKR dsRBMs (Homo sapiens) (P19525 9-167): as the sequence (P19525 9-167) above
# Sequence of PKR (unphosphorylated) (Homo sapiens) (P19525 whole entry): as the sequence (P19525 whole entry) above
molecule,measurement,setting,value
VA-I RNA,Kd,[1],220 nM
same,Kd,[2],40 nM
TARΔ23-39,Kd,[1],190 nM
same,Kd,[2],54 nM
TAR2GC (WT) (structured_RNA) RNA: GGUCUCUCUGGUUAGACCAGAUCUGAGCCUGGGAGCUCUCUGGCUAACUAGGGAACC,Kd,PKR (unphosphorylated) [3]; [10],35 ± 5 nM
same,Kd,PKR dsRBMs [4]; [10],120 ± 10 nM
same,Kd,Tat44-60 WT [5],160 ± 100 nM
"2AP24 TAR2GC (structured_RNA, 2-aminopurine at C24) RNA: GGUCUCUCUGGUUAGACCAGAUAUGAGCCUGGGAGCUCUCUGGCUAACUAGGGAACC",binding result,NC (nucleocapsid),binds
same,binding result,PKR dsRBMs [6],binds
same,binding result,Tat44-60 WT [7],binds
TAR GAAA (TAR-I) (structured_RNA) RNA: GGUCUCUCUGGUUAGACCAGAUCUGAGCCGAAAAGCUCUCUGGCUAACUAGGGAACC,binding result,Tat44-60 WT [8],binds
"2AP17 TAR2GC (structured_RNA, 2-aminopurine at A17) RNA: GGUCUCUCUGGUUAGACCAGAUCUGAGCCUGGGAGCUCUCUGGCUAACUAGGGAACC",binding result,NC (nucleocapsid),binds
same,binding result,Tat44-60 WT [7],binds
"2AP3 TAR2GC C57U (structured_RNA, 2-aminopurine at G3; C57U) RNA: GAUCUCUCUGGUUAGACCAGAUCUGAGCCUGGGAGCUCUCUGGCUAACUAGGGAAUC",binding result,NC (nucleocapsid),binds
same,binding result,PKR dsRBMs [6],binds
same,binding result,Tat44-60 WT [7],binds
"2AP20 TAR2GC (structured_RNA, 2-aminopurine at A20) RNA: GGUCUCUCUGGUUAGACCAGAUCUGAGCCUGGGAGCUCUCUGGCUAACUAGGGAACC",binding result,NC (nucleocapsid),binds
same,binding result,PKR dsRBMs [6],binds
same,binding result,Tat44-60 WT [7],binds
TAR A48U/C49G/U50A (structured_RNA) RNA: GGUCUCUCUGGUUAGACCAGAUCUGAGCCUGGGAGCUCUCUGGCUAUGAAGGGAACC,Kd,PKR dsRBMs [4]; label: 3' FAM,360 ± 120 nM
same,Ka,PKR (unphosphorylated) [9],7.02 ± 0.11 log10 M-1
GUUAGACCAGAUCUGAGCCUGGGAGCUCUCUGGCUAAC (structured_RNA) [TARΔ9bp],Kd,PKR (unphosphorylated) [3]; label: 3' FAM,130 ± 40 nM
same,Kd,PKR dsRBMs [4]; label: 3' FAM,1900 ± 700 nM
CUCUGGUUAGACCAGAUCUGAGCCUGGGAGCUCUCUGGCUAACUAGGG (structured_RNA) [TARΔ4bp],Kd,PKR (unphosphorylated) [3]; label: 3' FAM,50 ± 3 nM
same,Kd,PKR dsRBMs [4]; label: 3' FAM,290 ± 20 nM
CCAGAUCUGAGCCUGGGAGCUCUCUGG (structured_RNA) [TARΔ14bp],Kd,PKR (unphosphorylated) [3]; label: 3' FAM,1230 ± 1000 nM
same,Kd,PKR dsRBMs [4]; label: 3' FAM,2280 ± 700 nM
